The values that follow are results of earlier work, collected in US6896870B1, “Diagnostic probes and therapeutics targeting uPA and uPAR” (Angstrom Pharmaceuticals, Inc., priority 1999, dated 2005).

Bridge positions count the residues as written; N and C are the ends. Ends that are not written are not given here.

For orientation: IC50 means the midpoint of a concentration-inhibition curve.

This data set deals with uPAR (Homo sapiens, UniProt Q03405). The note with it: read-out: IC50, prevention of uPA binding to uPAR.
Sequence of uPAR (Q03405 23-305): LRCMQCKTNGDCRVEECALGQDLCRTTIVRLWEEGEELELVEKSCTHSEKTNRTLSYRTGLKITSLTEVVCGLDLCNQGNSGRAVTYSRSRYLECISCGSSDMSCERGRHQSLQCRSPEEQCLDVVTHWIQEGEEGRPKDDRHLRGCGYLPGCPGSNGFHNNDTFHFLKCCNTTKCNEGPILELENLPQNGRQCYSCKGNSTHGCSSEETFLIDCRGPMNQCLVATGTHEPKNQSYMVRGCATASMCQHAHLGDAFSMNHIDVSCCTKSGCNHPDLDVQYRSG

As for “[Ala^19]uPA(12-32) [[Ala^19]uPA(12-32) open chain form] (DCLNGGTAVSNKYFSNIHWCN; UniProt P00749 32-52, looked up, variant C19A) [uPA GFD peptide with two cysteines, the third cysteine replaced by Ala]”, the IC50 is 100 nM.
In the case of “[Ala^19]uPA(12-32) [[Ala^19]uPA(12-32) oxidized cyclic form] (DCLNGGTAVSNKYFSNIHWCN; disulfide 2-20 (inferred); UniProt P00749 32-52, looked up, variant C19A) [same peptide cyclised by intrachain disulfide bond]”, the IC50 is 40 nM.
